Test [1] has as its target fluorescence recovery protein (FRP, Slr1964) of Synechocystis sp. PCC 6803, His6-tagged (Synechocystis sp. PCC 6803) (UniProt P74103). Put plainly: native MS.
Test [2] concerns the target T1, orange carotenoid protein (OCP) of Synechocystis sp. PCC 6803 (Synechocystis sp. PCC 6803), P74102.
T1 chain: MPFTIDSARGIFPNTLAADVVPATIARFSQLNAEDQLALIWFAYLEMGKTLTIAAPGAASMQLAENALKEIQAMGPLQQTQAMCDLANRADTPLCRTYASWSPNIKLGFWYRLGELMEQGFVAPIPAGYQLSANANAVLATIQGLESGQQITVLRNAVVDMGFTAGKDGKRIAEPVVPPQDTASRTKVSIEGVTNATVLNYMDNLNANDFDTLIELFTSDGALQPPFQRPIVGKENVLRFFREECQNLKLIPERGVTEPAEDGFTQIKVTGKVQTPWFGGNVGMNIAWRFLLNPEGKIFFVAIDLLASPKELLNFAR
Put plainly: native MS. Particulars: remark: other sources report otherwise.

In article PMC5369232 one finds stoichiometry N data, which are given here for two molecules.

The term stoichiometry N denotes the number of molecules, sites or subunits per partner or assembly. “fluorescence recovery protein (FRP, Slr1964) of Synechocystis sp. PCC 6803, His6-tagged (from UniProt P74103 2-109) (natural protein)” returned a stoichiometry N in test [1] of 2.

B1: orange carotenoid protein (OCP) of Synechocystis sp. PCC 6803, P74102 1-317 (natural protein)
chain: T1 chain
In test [2], B1 showed a stoichiometry N of 2.
